Here are results for two molecules from patent US20240124575A1 (SIMCERE ZAIMING PHARMACEUTICAL, published 2024).

The target in assay [1] is T1, human CD33-His (extracellular domain Asp 18-His 259) (human, UniProt P20138 18-259).
T1 construct: range 18-259; bought protein; also called hCD33-his; human CD33 protein; not shown: His tag
The experiment in a line: competitive ELISA vs coated C33B904 2ug/mL; soluble 25ug/ml. On the procedure: (§1) VHH antibodies and control antibodies with known epitopes were subjected to epitope classification with competitive ELISA. ELISA plates were coated with 2 μg/mL antibodies according to the method in Example 5.1; the human CD33-his protein was subjected to a gradient dilution from 30 μg/mL, and EC80 values (Tables 26-27) were calculated. ELISA plates were coated with 2 μg/mL antibodies; after 25 µg/mL of antibodies to be tested were added, a human CD33-his protein having an EC80 concentration corresponding to each of the antibodies to be tested was then added for incubation for 2 h. The plates were washed 5 times with PBS, then HRP-labeled anti-His antibodies (purchased from GenScript, Cat. No. A00612) were added for incubation for 1 h, and the plates were washed 5 times. A TMB substrate was added at 50 μL/well and incubated at room temperature for 10 min, then a stop solution (1.0 M HCl) was added at 50 μL/well. OD_{450 nm} values were read using an ELISA plate reader (Insight, purchased from PerkinElmer), and the competition rate between the antibodies was calculated according to the OD_{450 nm} values using a formula. The results are shown in FIGS. 12A-12B, the higher the value of the competition rate, the closer the epitopes to which two antibodies bind.

The target of assay [2] is T1, human CD33-His (extracellular domain …). The experiment in a line: competitive ELISA vs coated S006-NB146-60 2ug/mL; soluble 25ug/ml. As to the method:
as §1

Assay [3] has the same target. Put plainly: competitive ELISA vs coated S006-NB146-20 2ug/mL; soluble 25ug/ml. As to the method: as §1
On the technique in general: In an ELISA, binding on a coated surface is turned into a signal by an enzyme label.

Assay [4] addresses T2, human CD33-his protein (human, UniProt P20138 18-259).
T2 construct: range 18-259; bought protein; also called hCD33-his; recombinant human CD33-his; not shown: His tag
Put plainly: competition ELISA, coated human CD33-his, vs Biotin-C33B904 at EC80; antibody 3.91 nM. On the procedure: (§2) ELISA plates were coated with 2 μg/mL human CD33-his protein according to the method in Example 5.1; the Biotin-C331B904 antibody was subjected to a gradient dilution from 15 μg/mL, and EC80 values (0.18 μg/mL) were calculated. ELISA plates were coated with 2 μg/mL human CD33-his protein; starting from 40 μg/mL, the VHH antibodies to be tested were diluted in a 1:2 dilution ratio to obtain seven concentrations and added to the ELISA plates, and then Biotin-C331904 antibodies with the EC80 concentrations were added for incubation for 2 h. The plates were washed 5 times with PBS and then […] (purchased from Sigma, Cat. No. S2438) were added for incubation for 1 h, and the plates were washed 5 times. A TMB substrate was added at 50 μL/well and incubated at room temperature for 10 min, then a stop solution (1.0 M HCl) was added at 50 μL/well. OD_{450 nm} values were read using an ELISA plate reader (Insight, purchased from PerkinElmer). Then, analysis was performed by software (GraphPad Prism8), and data were fitted for curve plotting. The results are shown in FIGS. 13A-13B and Tables 28 and 29.

The target of assay [5] is T2, human CD33-his protein. Put plainly: competition ELISA, coated human CD33-his, vs Biotin-C33B904 at EC80; antibody 7.81 nM. As to the method: The plate was sealed with a plastic film and incubated at 4° C. overnight, washed twice with PBS the next day, and a blocking solution [PBS+2% (w/w) BSA] was added for blocking at room temperature for 2 h. The blocking solution was discarded, and VHH-Fc antibody or negative control antibody serially diluted from 100 nM was added at 50 μL/well. After incubation at 37° C. for 2 h, the plate was washed 3 times with PBS. A secondary antibody labeled with HRP (horseradish peroxidase) (purchased from Sigma, Cat. No. A0170) was added. After incubation for 1 h at 37° C., the plate was washed 5 times with PBS. A TMB substrate was added at 50 μL/well. After incubation at room temperature for 10 min, a stop solution (1.0 N HCl) was added at 50 μL/well. The OD450 nm values were read on an ELISA plate reader (Multimode Plate Reader, EnSight, purchased from Perkin Elmer). The assay results for the binding of the VHH-Fc to hCD33-his by ELISA are shown in FIGS. 7A and 7B and Tables 11 and 12. […] The IgG control was hIgG1, and the data in the table are OD450 nm values.
ELISA plates were coated with 2 μg/mL human CD33-his protein according to the method in Example 5.1; the Biotin-C331B904 antibody was subjected to a gradient dilution from 15 μg/mL, and EC80 values (0.18 μg/mL) were calculated. […] OD_{450 nm} values were read using an ELISA plate reader (Insight, purchased from PerkinElmer). […]

The target of assay [6] is T2, human CD33-his protein. The experiment in a line: SPR (Biacore), antibody captured on Protein A chip, human CD33-his analyte. As to the method: The sample and running buffer was HBS-EP+ (10 mM HEPES, 150 mM NaCl, 3 mM EDTA, 0.05% surfactant P20) (GE Healthcare; BR-1006-69). The flow cell was set at 25° C. The sample block was set at 16° C. Both were pretreated with the running buffer. In each cycle, first, the antibody to be tested was captured using the Protein A chip, and then a single concentration of CD33 antigen protein was injected. The association and dissociation processes of the antibody with the antigen protein were recorded, and finally, the chip was regenerated using Glycine pH 1.5 (GE Healthcare; BR-1003-54). The association was determined by injecting different concentrations of recombinant human CD33-his in the solution and maintaining for 240 s, wherein the flow rate was 30 μL/min, and the protein was diluted in a 1:1 dilution ratio from 200 nM to obtain 5 concentrations in total. The dissociation phase was monitored for up to 600 s and triggered by switching from the sample solution to the running buffer. The surface was regenerated by washing with 10 mM glycine solution (pH 1.5) at a flow rate of 30 μL/min for 30 s. The difference in bulk refractive index was corrected by subtracting the responses obtained from the […]. Blank injections were also subtracted (=double reference). To calculate the apparent KD and other kinetic parameters, the Langmuir 1:1 model was used.
For orientation: In SPR one partner is held on a chip, and binding of the other changes the refractive index at the surface.

For assay [7], the target named is T2, human CD33-his protein. The experiment in a line: competition ELISA, coated human CD33-his, vs Biotin-C33B904 at EC80; antibody 250.00 nM. On the procedure: as §2
Assay [8] deals with T2, human CD33-his protein. The experiment in a line: competition ELISA, coated human CD33-his, vs Biotin-C33B904 at EC80; antibody 0.49 nM. On the procedure:
as §2

T1 sequence (P20138 18-259 limits assumed): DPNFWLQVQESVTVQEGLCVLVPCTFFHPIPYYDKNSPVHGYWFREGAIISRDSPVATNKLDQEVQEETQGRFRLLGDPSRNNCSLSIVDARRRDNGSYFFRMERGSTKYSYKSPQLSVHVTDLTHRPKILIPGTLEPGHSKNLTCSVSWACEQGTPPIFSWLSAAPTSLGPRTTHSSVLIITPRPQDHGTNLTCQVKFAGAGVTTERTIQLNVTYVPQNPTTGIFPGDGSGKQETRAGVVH
T2 sequence (P20138 18-259 limits assumed): as above

B1: C33B904 hIgG1 (antibody, V domains shown)
VH: EVQLVESGGGLVQPGRSLRLSCAASGFTFDDYAMHWVRQAPGKGLEWVSGIGWSGGSIVYADSVKGRFTISRDNAKNSLYLQMNSLRAEDTALYYCAKDSPYGDFFDYWGQGTLVTVSS
VL: DIVMTQSPDSLAVSLGERATINCKSSQTVFYSSNNKNYLAWYQQKPGQPPKLLISWASTRKSGVPDRFSGSGSGTDFTLTVSSLQAEDVAVYYCQHYYSTPYTFGQGTKLEIKR
notes: intact human IgG1; variable regions from US20190382481A1; also called C33B3904; C331B904
As to B1, the figures for the inhibition rate in assay [1], in assay [2] and in assay [3] were 88%, 8% and 100%, respectively.

B2: C33B904 (antibody, human IgG1, kappa, V domains shown)
VH: EVQLVESGGGLVQPGRSLRLSCAASGFTFDDYAMHWVRQAPGKGLEWVSGIGWSGGSIVYADSVKGRFTISRDNAKNSLYLQMNSLRAEDTALYYCAKDSPYGDFFDYWGQGTLVTVSS
VL: DIVMTQSPDSLAVSLGERATINCKSSQTVFYSSNNKNYLAWYQQKPGQPPKLLISWASTRKSGVPDRFSGSGSGTDFTLTVSSLQAEDVAVYYCQHYYSTPYTFGQGTKLEIKR
notes: control antibody, intact human IgG1 form; variable regions from US20190382481A1; also called C33B904 hIgG1; C331B904
B2: the “OD450 (Biotin-C33B904 signal)” value with human CD33-his protein [4] was found to be 1.77; with human CD33-his protein [5] it was 1.72; with human CD33-his protein [7] it was 0.1; with human CD33-his protein [8] it was 2.26. Besides, the Kd (usually a measure of binding affinity in units of concentration) in the assay with human CD33-his protein [6] was 0.079 nM. Further, the koff (usually the first-order rate constant of dissociation) with human CD33-his protein [6] was 6.54e-05 s⁻¹. The kon (commonly the rate constant with which the complex forms) with human CD33-his protein [6] is 828000 M⁻¹ s⁻¹.
